Results: publication PMC12409425, “Two distinct protein-protein interfaces drive cooperative binding of the herpes simplex virus protein ICP8 to ssDNA, filament formation and annealing essential for viral replication” (The Journal of Biological Chemistry, 2025)
Residue numbers refer to the chain shown, from its start. Numbers in names are those of the source.

Key:
[1] = target: T1, ICP8Δ60 (HSV-1 ICP8 lacking the 60-aa C-terminal tail) (herpes simplex virus type 1 (HSV-1), …, UniProt P17470 1-1136, in the MST only: labelled on amines with the red dye NT-647-NHS (RED-NHS Monolith kit); unlabelled in the thermal shift assays); test: label-free thermal shift (nanoDSF, Tycho NT.6); 5 μM ICP8Δ60 with a molar excess of CTD fragment (1:10 M ratio), no ssDNA; shift of the inflection temperature Ti of ICP8Δ60; 20 mM Na phosphate pH 7.6, 100 mM NaCl, 100 μM EDTA, 1 mM TCEP, 10% glycerol, 5 mM MgCl2; heated at 30 °C/min; details: both partners purified
T1 construct: the tail is printed as residues 1136-1196; source: Sf9 insect cells infected with recombinant baculovirus (pFastBac1-ICP8Δ60), purified (SP-Sepharose cation exchange)
T1 sequence: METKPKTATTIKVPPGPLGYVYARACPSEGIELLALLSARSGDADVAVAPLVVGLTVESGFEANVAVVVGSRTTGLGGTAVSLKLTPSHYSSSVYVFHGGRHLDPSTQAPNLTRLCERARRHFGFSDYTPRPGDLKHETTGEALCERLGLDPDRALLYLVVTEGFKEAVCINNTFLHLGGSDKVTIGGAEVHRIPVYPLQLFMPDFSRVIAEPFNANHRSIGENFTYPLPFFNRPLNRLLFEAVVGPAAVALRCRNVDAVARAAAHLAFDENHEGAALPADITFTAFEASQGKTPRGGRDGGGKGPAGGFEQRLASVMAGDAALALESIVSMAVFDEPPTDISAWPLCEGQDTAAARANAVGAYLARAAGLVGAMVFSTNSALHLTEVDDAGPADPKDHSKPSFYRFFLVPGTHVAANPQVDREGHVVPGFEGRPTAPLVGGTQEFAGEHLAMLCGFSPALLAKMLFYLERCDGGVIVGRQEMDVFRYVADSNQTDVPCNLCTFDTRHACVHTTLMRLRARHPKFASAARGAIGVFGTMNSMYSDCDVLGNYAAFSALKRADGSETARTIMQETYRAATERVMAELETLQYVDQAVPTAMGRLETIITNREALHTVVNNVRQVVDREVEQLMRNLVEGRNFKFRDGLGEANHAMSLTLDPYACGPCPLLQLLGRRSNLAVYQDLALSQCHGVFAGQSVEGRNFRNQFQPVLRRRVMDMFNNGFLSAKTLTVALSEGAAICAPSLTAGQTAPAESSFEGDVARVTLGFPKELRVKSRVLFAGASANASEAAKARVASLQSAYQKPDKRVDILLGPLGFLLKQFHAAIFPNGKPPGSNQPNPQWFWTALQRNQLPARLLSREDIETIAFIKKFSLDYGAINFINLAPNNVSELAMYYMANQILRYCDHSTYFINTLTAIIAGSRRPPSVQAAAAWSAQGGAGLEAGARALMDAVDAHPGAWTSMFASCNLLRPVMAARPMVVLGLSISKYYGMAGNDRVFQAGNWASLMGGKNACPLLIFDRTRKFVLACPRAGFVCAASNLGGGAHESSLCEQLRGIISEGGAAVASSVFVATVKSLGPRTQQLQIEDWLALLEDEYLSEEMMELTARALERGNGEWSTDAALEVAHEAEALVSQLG

[2] = target: T1, ICP8Δ60 (HSV-1 ICP8 lacking the 60-aa …); test: MST; ICP8Δ60 labelled with NT-647-NHS at 20 nM or 50 nM, unlabelled CTD fragment titrated from low nanomolar to high micromolar; 20 mM sodium phosphate pH 7.5, 100 mM NaCl, 0.1 mM EDTA, 2 mM DTT, 5 mM MgCl2, 0.05% Tween 20; 30 min at RT; one site binding model; details: both partners purified
[3] = target: T1, ICP8Δ60 (HSV-1 ICP8 lacking the 60-aa …); test: label-free thermal shift (nanoDSF, Tycho NT.6); as a1 (1:10 M ratio), with 1.2 M excess of a 19-mer ssDNA added to the preformed binary complex; ΔTi counted against apo ICP8Δ60 without ssDNA (ssDNA alone gives 1.1 °C); details: both partners purified
[4] = target: T1, ICP8Δ60 (HSV-1 ICP8 lacking the 60-aa …); test: label-free thermal shift (nanoDSF), dose series refitted with MoltenProt; 5 μM ICP8Δ60 preincubated with 10 to 100 μM CTD fragment (1:2 to 1:20 M ratio) for 3 h at room temperature; two-state reversible unfolding model; details: both partners purified
ICP8 WT = ICP8 WT (Herpes simplex virus type 1 (KOS), UniProt P17470 1-1196); test: EMSA; cooperative supershifted band present; EMSA: 20 mM HEPES pH 7.5, 150 mM KCl, 2 mM EDTA, 1 mM TCEP, 6% Ficoll, on ice 30 min, gel at 4 °C; thermal shift: 20 mM Na phosphate (SI: HEPES) pH 7.6, 100 mM; details: protein: recombinant; tags: none stated; chain copies: 4; label: Cy5; single strand
[5] = target: the molecule itself; test: negative-stain electron microscopy of filament formation; 0.5 μM protein overnight at 4 °C in 20 mM HEPES-KOH pH 7.5, 100 mM NaCl, 10% glycerol, 1 mM DTT, 0.1 mM EDTA, 5 mM MgCl2; uranyl acetate stain; no DNA
ICP8Δ60 = ICP8Δ60 (Herpes simplex virus type 1 (KOS), UniProt P17470 1-1136); test: MST; 20 nM DNA; EMSA: 20 mM HEPES pH 7.5, 150 mM KCl, 2 mM EDTA, 1 mM TCEP, 6% Ficoll, on ice 30 min, gel at 4 °C; thermal shift: 20 mM Na phosphate (SI: HEPES) pH 7.6, 100 mM; details: protein: recombinant; tags: none stated; label: 5' Cy5; single strand

B1: ICP8-CTD Δ60 (domain or fragment)
chain: AASNLGGGAHESSLCEQLRGIISEGGAAVASSVFVATVKSLGPRTQQLQIEDWLALLEDEYLSEEMMELTARALERGNGEWSTDAALEVAHEAEALVSQLG
notes: ICP8 (UL29) of HSV-1, C-terminal domain (begins at 1036) with the last 60 residues deleted; source: E. coli BL21 (pET28a-His-ICP8-CTDΔ60), purified (Talon cobalt beads, Superose 12 gel filtration)
[1]
  ΔTi of ICP8Δ60 (Ti complex - Ti apo), - ssDNA: 0.7 °C
[2]
  Kd: 53500 nM
[3]
  ΔTi of ICP8Δ60 (Ti complex - Ti apo), + ssDNA: 2 °C

B2: ICP8-CTD WT (His-tagged entire C-terminal domain of ICP8, residues 1036-1196) (domain or fragment)
chain: AASNLGGGAHESSLCEQLRGIISEGGAAVASSVFVATVKSLGPRTQQLQIEDWLALLEDEYLSEEMMELTARALERGNGEWSTDAALEVAHEAEALVSQLGNAGEVFNFGDFGCEDDNATPFGGPGAPGPAFAGRKRAFHGDDPFGEGPPDKKGDLTLDML
notes: ICP8 (UL29) of HSV-1, entire C-terminal domain with the helical bundle and the intact 60-aa disordered tail, residues 1036-1196; The methods give no limits for the pET28a construct and give aa 1049-1135 for the Flag-tagged CTD of the cell experiments; also called WT ICP8-CTD; WT CTD; source: E. coli BL21 (pET28a-His-ICP8-CTD, codon optimised), purified (Talon cobalt beads, Superose 12 gel …)
[1]
  ΔTi of ICP8Δ60 (Ti complex - Ti apo), - ssDNA: 2.1 °C
[2]
  Kd: 147 nM
[3]
  ΔTi of ICP8Δ60 (Ti complex - Ti apo), + ssDNA: 2.9 °C
[4]
  Ti of ICP8Δ60 at 1:2 ratio (ICP8Δ60 alone 51.5): 52.1 ± 0.1 °C
  Ti of ICP8Δ60 at 1:5 ratio (ICP8Δ60 alone 51.5): 52.7 ± 0.1 °C
  Ti of ICP8Δ60 at 1:10 ratio (ICP8Δ60 alone 51.5): 53.3 ± 0.1 °C
  Ti of ICP8Δ60 at 1:20 ratio (ICP8Δ60 alone 51.5): 53.9 ± 0.1 °C

B3: ICP8-CTD FNF→AAA (domain or fragment)
chain: B2 chain with F107A, N108A, F109A
notes: ICP8 (UL29) of HSV-1, C-terminal domain, residues 1036-1196, with the triple alanine substitution of F1142, N1143 and F1144; the text has 1142-1144; also called FNF→AAA CTD; source: E. coli BL21 (pET28a-His-ICP8-CTD mutant), purified (Talon cobalt beads, Superose 12 gel filtration)
[1]
  ΔTi of ICP8Δ60 (Ti complex - Ti apo), - ssDNA: 0.6 °C
[2]
  Kd: 21100 nM
[3]
  ΔTi of ICP8Δ60 (Ti complex - Ti apo), + ssDNA: 1.9 °C

B4: ICP8-CTD D1087A (domain or fragment)
chain: B2 chain with D52A
notes: ICP8 (UL29) of HSV-1, C-terminal domain, residues 1036-1196, with D1087A; source: E. coli BL21 (pET28a-His-ICP8-CTD mutant), purified (Talon cobalt beads, Superose 12 gel filtration)
[1]
  ΔTi of ICP8Δ60 (Ti complex - Ti apo), - ssDNA: 1 °C
[2]
  Kd: 1550 nM
[3]
  ΔTi of ICP8Δ60 (Ti complex - Ti apo), + ssDNA: 2.4 °C

## TTTTTTTTTTTTTTTTTTTTTTTTTTTTTTTTTTTTTTTTTTTTTTTTTT (ssDNA) [Cy5-50-mer dT]
ICP8 WT
  binding result: binds

B5: ICP8 WT, full length (natural protein)
chain: METKPKTATTIKVPPGPLGYVYARACPSEGIELLALLSARSGDADVAVAPLVVGLTVESGFEANVAVVVGSRTTGLGGTAVSLKLTPSHYSSSVYVFHGGRHLDPSTQAPNLTRLCERARRHFGFSDYTPRPGDLKHETTGEALCERLGLDPDRALLYLVVTEGFKEAVCINNTFLHLGGSDKVTIGGAEVHRIPVYPLQLFMPDFSRVIAEPFNANHRSIGENFTYPLPFFNRPLNRLLFEAVVGPAAVALRCRNVDAVARAAAHLAFDENHEGAALPADITFTAFEASQGKTPRGGRDGGGKGPAGGFEQRLASVMAGDAALALESIVSMAVFDEPPTDISAWPLCEGQDTAAARANAVGAYLARAAGLVGAMVFSTNSALHLTEVDDAGPADPKDHSKPSFYRFFLVPGTHVAANPQVDREGHVVPGFEGRPTAPLVGGTQEFAGEHLAMLCGFSPALLAKMLFYLERCDGGVIVGRQEMDVFRYVADSNQTDVPCNLCTFDTRHACVHTTLMRLRARHPKFASAARGAIGVFGTMNSMYSDCDVLGNYAAFSALKRADGSETARTIMQETYRAATERVMAELETLQYVDQAVPTAMGRLETIITNREALHTVVNNVRQVVDREVEQLMRNLVEGRNFKFRDGLGEANHAMSLTLDPYACGPCPLLQLLGRRSNLAVYQDLALSQCHGVFAGQSVEGRNFRNQFQPVLRRRVMDMFNNGFLSAKTLTVALSEGAAICAPSLTAGQTAPAESSFEGDVARVTLGFPKELRVKSRVLFAGASANASEAAKARVASLQSAYQKPDKRVDILLGPLGFLLKQFHAAIFPNGKPPGSNQPNPQWFWTALQRNQLPARLLSREDIETIAFIKKFSLDYGAINFINLAPNNVSELAMYYMANQILRYCDHSTYFINTLTAIIAGSRRPPSVQAAAAWSAQGGAGLEAGARALMDAVDAHPGAWTSMFASCNLLRPVMAARPMVVLGLSISKYYGMAGNDRVFQAGNWASLMGGKNACPLLIFDRTRKFVLACPRAGFVCAASNLGGGAHESSLCEQLRGIISEGGAAVASSVFVATVKSLGPRTQQLQIEDWLALLEDEYLSEEMMELTARALERGNGEWSTDAALEVAHEAEALVSQLGNAGEVFNFGDFGCEDDNATPFGGPGAPGPAFAGRKRAFHGDDPFGEGPPDKKGDLTLDML
notes: also called WT ICP8; full-length ICP8
[5]
  binding result: binds

## TTTTTTTTTTTTTTTTTTTTTTTTT (ssDNA) [Cy5-25-mer poly(dT)]
ICP8Δ60
  Kd: 70 nM
